For the assay, the target named is PdGH110B (GH110 family α-1,3-galactosidase from Pseudoalteromonas distincta U2A) (Pseudoalteromonas distincta U2A). Description: dynamic light scattering; PdGH110B in solution at protein concentrations of 0.18, 0.37 and 0.73 mg/ml; monomer to dimer.

For orientation: stoichiometry N means the number of molecules, sites or subunits per partner or assembly. Turning to “PdGH110B (GH110 family α-1,3-galactosidase from Pseudoalteromonas distincta U2A) (enzyme)”, the stoichiometry N was determined as 2.

Values taken from paper PMC7939477.
